The supplement of paper PMC7877785
± gives the uncertainty stated by the source.

Assay: self-splicing fitness, log relative to wild type (ln ratio); higher = more splicing; Tetrahymena group I intron in knt gene, E. coli kanamycin selection, DiMSum; sequences stand for … in CUCUCU…GGAGGGAAAAGUUAUCAGGCAUGCACCUGGUAGCUAGUCUUUAAACCAAUAGAUUGCAUCGGUUUAAAAGGCAAGACCGUCAAAUUGCGGGAAAGGGGUCAACAGCCGUUCAGUACCAAGUCUCAGGGGAAACUUUGAGAUGGCCUUGCAAAGGGUAUGGUAAUAAGCUGACGGACAUGGUCCUAACCACGCAGCCAAGUCCUAAGUCAACAGAUCUUCUGUUGAUAUGGAUGCAGUUCACAGACUAAAUGUCGGUCGGGGAAGAUGUAUUCUUCUCAUAAGAUAUAGUCGGACCUCUCCUUAAUGGGAGCUAGCGGAUGAAGUGAUGCAACACUGGAGCCGCUGGGAACUAAUUUGUAUGCGAAAGUAUAUUGAUUAGUUUUGGAGUACUCGUGGUCG
In short: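 A randomised library covering all eight P1ex-region intron nucleotides was built with the intron in the knt kanamycin-resistance gene on pET-22b(+) and held in E. coli BL21(DE3). Cells were grown overnight at 37°C or 30°C on LB agar, with or without 25 μg/mL kanamycin, plus 100 μg/mL carbenicillin, 50 μM IPTG and 0.2% rhamnose, and pooled colonies were amplicon-sequenced on an Illumina HiSeq 2500. DiMSum fitness is the error-weighted combination of wild-type-normalised replicate fold changes, kanamycin versus none.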

Sequence	self-splicing fitness (ln) (30 °C)	self-splicing fitness (ln) (37 °C)
ACGGAGCAAUAUUACGCAAA	-2.73 ± 0.25	-1.58 ± 0.22
ACGGAGCAAUAUUACGCACU	-3.4 ± 0.34	-1.32 ± 0.23
ACGGAGCAAUAUUACGCGAU	–	-1.2 ± 0.17
ACGGAGCAAUAUUACGCGGA	-3.41 ± 0.37	-1.54 ± 0.26
ACGGAGCAAUAUUACGCGUA	-2.62 ± 0.12	-1.32 ± 0.11
ACGGAGCAAUAUUACGGAAC	-3.05 ± 0.27	-3.62 ± 0.47
ACGGAGCAAUAUUACGGACU	-2.21 ± 0.15	-1.84 ± 0.16
ACGGAGCAAUAUUACGGCGA	-2.01 ± 0.13	-1.83 ± 0.15
ACGGAGCAAUAUUACGGGAG	-3.09 ± 0.37	-1.65 ± 0.24
ACGGAGCAAUAUUACGGUAU	-4.48 ± 0.25	-2.58 ± 0.2
ACGGAGCAAUAUUACGGUCU	-3.07 ± 0.21	-2.44 ± 0.26
ACGGAGCAAUAUUACGGUUU	-3.1 ± 0.15	-3.31 ± 0.28
ACGGAGCAAUAUUACGUAUG	-3.6 ± 0.2	-2.81 ± 0.32
ACGGAGCAAUAUUACGUCUU	-2.7 ± 0.35	-2.06 ± 0.5
ACGGAGCAAUAUUACGUGAU	-3.47 ± 0.19	-1.32 ± 0.2
ACGUAGCAAUAUUACGAACG	-1 ± 0.082	-0.927 ± 0.12
ACGUAGCAAUAUUACGAAUG	-2.89 ± 0.13	-1.53 ± 0.12
ACGUAGCAAUAUUACGACAA	-0.894 ± 0.071	-0.495 ± 0.084
ACGUAGCAAUAUUACGACAU	-0.126 ± 0.012	0.0543 ± 0.032
ACGUAGCAAUAUUACGACUA	-0.558 ± 0.15	0.529 ± 0.18
ACGUAGCAAUAUUACGAGCA	-0.664 ± 0.2	-1.82 ± 0.19
ACGUAGCAAUAUUACGAGUG	-2.54 ± 0.2	-1.43 ± 0.15
ACGUAGCAAUAUUACGAUGC	-3.24 ± 0.22	-1.51 ± 0.22
ACGUAGCAAUAUUACGAUUA	-0.625 ± 0.12	-0.514 ± 0.11

Sequence	self-splicing fitness (ln) (30 °C)	self-splicing fitness (ln) (37 °C)
ACGUAGCAAUAUUACGCCAU	-3.02 ± 0.19	-2.55 ± 0.24
ACGUAGCAAUAUUACGCCGA	-1.34 ± 0.23	-0.566 ± 0.18
ACGUAGCAAUAUUACGCCGG	-1.28 ± 0.11	-0.915 ± 0.17
ACGUAGCAAUAUUACGCGGC	-3.01 ± 0.22	-2.47 ± 0.42
ACGUAGCAAUAUUACGCGUC	-1.53 ± 0.22	-1.97 ± 0.35
ACGUAGCAAUAUUACGGGAG	-3.63 ± 0.17	-2.28 ± 0.17
ACGUAGCAAUAUUACGGGGU	-4.31 ± 0.3	-2.51 ± 0.18
ACGUAGCAAUAUUACGGUCA	-0.681 ± 0.16	0.577 ± 0.17
ACGUAGCAAUAUUACGUAGA	-3.58 ± 0.42	-2.86 ± 0.41
ACGUAGCAAUAUUACGUCAC	–	-1.67 ± 0.4
ACGUAGCAAUAUUACGUCUA	-0.802 ± 0.27	-1.22 ± 0.18
ACGUAGCAAUAUUACGUGUU	-3.73 ± 0.13	-2.37 ± 0.13
ACGUAGCAAUAUUACGUUGC	-3.35 ± 0.24	-1.68 ± 0.22
ACUAAGCAAUAUUACGAAAU	-2.67 ± 0.16	-1.22 ± 0.17
ACUAAGCAAUAUUACGAACU	-0.447 ± 0.083	0.532 ± 0.1
ACUAAGCAAUAUUACGACAA	-1.63 ± 0.079	-0.52 ± 0.1
ACUAAGCAAUAUUACGAGAC	-2.89 ± 0.28	-3.24 ± 0.35
ACUAAGCAAUAUUACGAGAG	-3.17 ± 0.13	-2.52 ± 0.15
ACUAAGCAAUAUUACGAGUC	-3.83 ± 0.42	-2.73 ± 0.2
ACUAAGCAAUAUUACGAUAC	-2.39 ± 0.21	-1.29 ± 0.22
ACUAAGCAAUAUUACGAUCG	-0.981 ± 0.15	0.89 ± 0.18
ACUAAGCAAUAUUACGCCAC	-2.45 ± 0.38	–
ACUAAGCAAUAUUACGCGCA	-0.252 ± 0.067	-0.518 ± 0.085
ACUAAGCAAUAUUACGCGCC	0.0442 ± 0.11	-0.687 ± 0.14

Sequence	self-splicing fitness (ln) (30 °C)	self-splicing fitness (ln) (37 °C)
ACUAAGCAAUAUUACGCUAA	-3.83 ± 0.43	-1.92 ± 0.38
ACUAAGCAAUAUUACGCUCU	-0.0344 ± 0.097	-0.566 ± 0.1
ACUAAGCAAUAUUACGCUUU	-2.34 ± 0.17	-1.97 ± 0.18
ACUAAGCAAUAUUACGGACU	0.14 ± 0.054	0.436 ± 0.076
ACUAAGCAAUAUUACGGGAG	-2.5 ± 0.11	-1.88 ± 0.14
ACUAAGCAAUAUUACGGGCU	-0.833 ± 0.089	-0.736 ± 0.083
ACUAAGCAAUAUUACGGGGG	-3.59 ± 0.29	-1.26 ± 0.17
ACUAAGCAAUAUUACGGUAG	-4.09 ± 0.2	-3.56 ± 0.2
ACUAAGCAAUAUUACGGUUA	-2.02 ± 0.1	-1.06 ± 0.086
ACUAAGCAAUAUUACGUAGC	-2.96 ± 0.16	-1.25 ± 0.13
ACUAAGCAAUAUUACGUGCA	-1.37 ± 0.073	-0.431 ± 0.11
ACUAAGCAAUAUUACGUUCA	-1.29 ± 0.1	-0.98 ± 0.098
ACUAAGCAAUAUUACGUUCC	-2.41 ± 0.23	-1.2 ± 0.29
ACUCAGCAAUAUUACGAAAU	-1.11 ± 0.091	0.0403 ± 0.099
ACUCAGCAAUAUUACGAAGC	-1.99 ± 0.19	-1.46 ± 0.16
ACUCAGCAAUAUUACGACGA	-0.9 ± 0.087	-0.164 ± 0.11
ACUCAGCAAUAUUACGAGCA	-0.632 ± 0.068	0.302 ± 0.092
ACUCAGCAAUAUUACGAUCA	-0.712 ± 0.13	-0.359 ± 0.12
ACUCAGCAAUAUUACGAUCG	-1.54 ± 0.074	-0.221 ± 0.12
ACUCAGCAAUAUUACGAUCU	-0.0985 ± 0.064	0.407 ± 0.08
ACUCAGCAAUAUUACGCUUC	-2.3 ± 0.094	-1.48 ± 0.12
ACUCAGCAAUAUUACGGAUA	-0.808 ± 0.15	-0.834 ± 0.16
ACUCAGCAAUAUUACGGUUA	-0.995 ± 0.08	-0.513 ± 0.076
ACUCAGCAAUAUUACGUAUC	-2.28 ± 0.14	-1.66 ± 0.14

Sequence	self-splicing fitness (ln) (30 °C)	self-splicing fitness (ln) (37 °C)
ACUCAGCAAUAUUACGUAUU	-2.01 ± 0.081	-0.892 ± 0.11
ACUCAGCAAUAUUACGUCGG	-1.74 ± 0.07	-1.25 ± 0.084
ACUCAGCAAUAUUACGUCUU	-0.765 ± 0.046	0.0108 ± 0.062
ACUCAGCAAUAUUACGUUAC	-4.33 ± 0.26	-2.31 ± 0.18
ACUCAGCAAUAUUACGUUAU	-2.29 ± 0.073	-1.27 ± 0.086
ACUCAGCAAUAUUACGUUGG	-3.63 ± 0.15	-1.49 ± 0.096
ACUGAGCAAUAUUACGCAGG	-3.15 ± 0.23	-1.14 ± 0.13
ACUGAGCAAUAUUACGCGAU	-3.36 ± 0.25	-1.71 ± 0.14
ACUGAGCAAUAUUACGCGGU	-2.46 ± 0.31	–
ACUGAGCAAUAUUACGGAAA	-2.92 ± 0.27	-2.61 ± 0.28
ACUGAGCAAUAUUACGGCAA	-2.13 ± 0.14	-2.33 ± 0.21
ACUGAGCAAUAUUACGGGGG	-3.19 ± 0.16	-2.17 ± 0.17
ACUGAGCAAUAUUACGGUCU	-2.46 ± 0.12	-1.57 ± 0.16
ACUGAGCAAUAUUACGGUUG	-2.76 ± 0.14	-1.73 ± 0.15
ACUGAGCAAUAUUACGUAUU	-3.29 ± 0.12	-1.48 ± 0.097
ACUGAGCAAUAUUACGUCUG	-3.59 ± 0.28	-2.43 ± 0.2
ACUGAGCAAUAUUACGUGAG	-1.82 ± 0.063	-1.36 ± 0.085
ACUGAGCAAUAUUACGUGCU	-3.84 ± 0.41	-2.28 ± 0.27
ACUGAGCAAUAUUACGUUCU	-1.77 ± 0.14	-1.48 ± 0.12
ACUUAGCAAUAUUACGAAAC	-3.64 ± 0.32	-1.65 ± 0.24
ACUUAGCAAUAUUACGAAGA	-1.69 ± 0.12	-1.24 ± 0.14
ACUUAGCAAUAUUACGACAA	-1.55 ± 0.17	-0.888 ± 0.28
ACUUAGCAAUAUUACGAGGG	-3.07 ± 0.24	-2.65 ± 0.23
ACUUAGCAAUAUUACGAGGU	-3.47 ± 0.22	-1.96 ± 0.21
